Target: FcRn
Assay: SPR (BIAcore) at pH 6.0

Kd [nM] | Substance
1640 | Non-specific IgG1 (antibody)
3640 | Non-specific IgG4 (antibody)

From patent publication US20240417458A1
